Laboratory results taken from ChEMBL document CHEMBL2074194.

Key:
[1] = substrate: CC[N+](CC)(CC)CC; assay: cells, lysate or membranes named
[2] = substrate: C[N+](C)(C)CCO; assay: cells, lysate or membranes named

B1: Solute carrier family 22 member 2 (Rattus norvegicus) (protein)
chain: MSTVDDILEHIGEFHLFQKQTFFLLALLSGAFTPIYVGIVFLGFTPDHHCWSPGAAKLSQRCGWSQAEELNYTVPGLGPSDEASFLSQCMRYEVDWNQSTLDCVDPLSSLAADRNQLPLGPCEHGWVYNTPGSSIVTEFNLVCAHSWMLDLFQSVVNVGFFIGAMMIGYLADRFGRKFCLLVTILINAISGALMAISPNYAWMLVFRFLQGLVSKAGWLIGYILITEFVGLGYRRMVGICYQIAFTVGLLILAGVAYVIPNWRWLQFAVTLPNFCFLLYFWCIPESPRWLISQNKIVKAMKIIKHIAKKNGKSVPVSLQNLTPDEDAGKKLNPSFLDLVRTPQIRKHTLILMYNWFTSSVLYQGLIMHMGLAGDNIYLDFFYSALVEFPAAFIIILTIDRVGRRYPWAVSNMVAGAACLASVFIPDDLQWLKITIACLGRMGITMAYEMVCLVNAELYPTYIRNLGVLVCSSMCDIGGIITPFLVYRLTDIWMEFPLVVFAVVGLVAGALVLLLPETKGKALPETIEDAENMQRPRKKKEKRIYLQVKQADRPLS
Q: With B1 as the protein, how does the Km [1] read?
A: The Km was 160 µM.

Q: What about the Km [2] of the same protein?
A: Its Km is 2000 µM.
